According to patent EP1053001B1 (AMYLIN PHARMACEUTICALS, INC., dated 2010):
Each block holds one binder with its values, some of them ahead of it. No end group written: not given here.

Legend:
[1] = target: T1, rat calcitonin C1a receptor (rat, UniProt P32214 25-516); assay: cell-based or functional assay
T1 sequence (looked up): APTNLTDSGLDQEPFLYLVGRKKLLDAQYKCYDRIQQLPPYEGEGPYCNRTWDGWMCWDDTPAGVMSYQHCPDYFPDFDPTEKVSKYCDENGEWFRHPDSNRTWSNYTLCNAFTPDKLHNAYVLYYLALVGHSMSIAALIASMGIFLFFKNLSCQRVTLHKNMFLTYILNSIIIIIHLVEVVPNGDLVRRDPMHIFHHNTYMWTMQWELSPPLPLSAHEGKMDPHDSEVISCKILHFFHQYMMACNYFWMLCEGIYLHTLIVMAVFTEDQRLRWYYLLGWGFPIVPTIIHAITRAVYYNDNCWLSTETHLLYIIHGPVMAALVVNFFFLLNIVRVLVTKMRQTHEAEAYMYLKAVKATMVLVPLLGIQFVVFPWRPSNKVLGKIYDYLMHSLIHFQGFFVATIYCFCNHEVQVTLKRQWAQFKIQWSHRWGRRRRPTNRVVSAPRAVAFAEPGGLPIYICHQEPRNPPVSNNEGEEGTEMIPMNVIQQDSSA

[2] = target: T2, amylin receptors (rat nucleus accumbens membranes) (rat); assay: radioligand competition vs 125I-BH-rat amylin, rat nucleus accumbens membranes
T2 construct: Assayed as a tissue membrane preparation, not on intact cells; also called amylin (nucleus accumbens) receptors

[3] = target: T3, calcitonin receptors (human T47D / MCF7 breast carcinoma cells) (human, UniProt P30988 25-474); assay: cell-based or functional assay
T3 sequence (looked up): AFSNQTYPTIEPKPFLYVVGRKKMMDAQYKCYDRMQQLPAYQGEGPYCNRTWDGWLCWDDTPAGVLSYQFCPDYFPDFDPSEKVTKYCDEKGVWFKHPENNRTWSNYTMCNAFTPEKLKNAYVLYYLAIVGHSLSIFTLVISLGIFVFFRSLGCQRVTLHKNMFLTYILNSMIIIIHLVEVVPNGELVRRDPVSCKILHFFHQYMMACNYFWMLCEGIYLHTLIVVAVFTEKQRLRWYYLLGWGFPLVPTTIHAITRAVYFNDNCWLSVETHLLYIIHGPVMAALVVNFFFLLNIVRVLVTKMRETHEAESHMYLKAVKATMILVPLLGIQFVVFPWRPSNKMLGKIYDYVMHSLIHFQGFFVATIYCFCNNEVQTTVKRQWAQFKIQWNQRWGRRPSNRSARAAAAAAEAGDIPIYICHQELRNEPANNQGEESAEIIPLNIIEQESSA

EC50 of adenyl cyclase stimulation, HEK293 cells stably transfected with rat calcitonin C1a receptor [1]: 970 pM
B1: Compound 1 (peptide)
peptide: LSTCVLGRLSQELHRLQTYPRTNTGSNTY
modifications: not fully specified

IC50 [2]: 92 pM
B2: Compound 5 (peptide)
peptide: LSTSVLGRLSQELHRLQTYPRTNTGSNTY-NH2

IC50 [2]: 66 pM
B3: Compound 4 (peptide)
peptide: LSTAVLGRLSQELHRLQTYPRTNTGSNTY-NH2
modifications: not fully specified

fold lower potency than human calcitonin, adenylyl cyclase, MCF7-7 cells [3]: 80 fold
B4: Compound 6 (peptide)
peptide: XLSTAVLGRLSQELHRLQTYPRTNTGSNTY
modifications: acetylated with acetic anhydride (site not given)
